Assay results taken from US20250295799A1 (Zymeworks, published 2025).

What was measured:
[1] = molecular target: T1, human glypican-3 (GPC3) (human, UniProt P51654 25-554); test: cell-based or functional assay
[2] = molecular target: T1, human glypican-3 (GPC3); test: cell-based or functional assay; remark: listed apart in the source
[3] = molecular target: T1, human glypican-3 (GPC3); test: flow cytometry on JHH-5 cells (GPC3-mid);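 further: antibody binding to cells at 4 °C for 24 h, detected with anti-human AF647 as geometric mean fluorescence of live cells versus antibody concentration, fitted by specific binding with Hill slope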
Description: (§1) Briefly, cells were seeded at 50,000 cells/well in V-bottom 96-well plates and treated with antibody for 24 hours at 4° C. to prevent internalization. […] Following incubation and washing, fluorescence was detected by flow cytometry on a BD LSRFortessa™ Cell Analyzer (BD Biosciences, Franklin Lake, NJ) with 1,000 minimum events collected per well. AF647/APC-A GeoMean (fluorescence signal geometric mean, proportional to anti-Human AF647 binding) in live cell population was plotted against antibody concentration using GraphPad Prism Version 9 (GraphPad Software, San Diego, CA). The Bmax, Curve Hill Slope (h) and Kd values were derived from the “Specific binding with Hill slope” nonlinear regression curve fit in GraphPad Prism Version 9.

[4] = molecular target: T1, human glypican-3 (GPC3); test: flow cytometry on JHH-7 cells (GPC3-high);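 further: antibody binding at 4 °C for 24 h, detected with anti-human AF647 secondary, geometric mean fluorescence of live cells versus antibody concentration, fitted as specific binding with Hill slope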
Description: as §1

[5] = molecular target: T1, human glypican-3 (GPC3); test: flow cytometry on CHO-S cells transfected with human GPC3;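 further: antibody binding to transiently transfected CHO-S cells after 24 hours at 4 °C, read as geometric mean fluorescence of anti-human AF647 in live cells, fitted against antibody concentration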
Description: (§2) Briefly, CHO—S cells were transiently transfected for −24 hours with a pTT5-based expression plasmid encoding human GPC3 or cynomolgus monkey GPC3, 0.5 μg DNA per 1 million cells, using the Neon™ Transfection System (Thermo Fisher Scientific Corp., Waltham, MA), to transiently express human or cynomolgus monkey GPC3. Cells transfected with GFP were used as negative transfection controls. Following transfection, cells were seeded at 50,000 cells/well in V-bottom 96-well plates and treated with antibody for 24 hours at 4° C. to prevent internalization. […] Following incubation and washing, fluorescence was detected by flow cytometry on a BD LSRFortessa™ Cell Analyzer (BD Biosciences, Franklin Lake, NJ) with 1,000 minimum events collected per well. AF647/APC-A GeoMean (fluorescence signal geometric mean, proportional to anti-Human AF647 binding) in live cell population was plotted against antibody concentration using GraphPad Prism Version 9 (GraphPad Software, San Diego, CA). The Bmax and Kd values were derived from the “Specific binding with Hill slope” nonlinear regression curve fit in GraphPad Prism Version 9.

[6] = molecular target: T2, cynomolgus monkey glypican-3 (GPC3) (cynomolgus monkey, UniProt A5A6P7 25-554 (Pan troglodytes entry)); test: flow cytometry on CHO-S cells transfected with cynomolgus GPC3;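 further: antibodies incubated 24 h at 4 °C with transiently transfected cells, binding read as AF647 geometric mean fluorescence of live cells, GFP-transfected cells as negative control, Hill-slope specific-binding fit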
T2 construct: Transiently expressed on CHO-S cells; also called cynoGPC3; CynoGPC3-CHO
Description: as §2

[7] = molecular target: T1, human glypican-3 (GPC3); test: flow cytometry on JHH-5 cells; antibody in mouse plasma, day 0
Description: (§3) For binding cells were seeded at 50,000 cells/well in V-bottom 96-well plates and treated with antibody for 24 hours at 4° C. to prevent internalization. […] Following incubation and washing, fluorescence was detected by flow cytometry on a BD LSRFortessa™ Cell Analyzer (BD Biosciences, Franklin Lake, NJ) with 1,000 minimum events collected per well. AF647/APC-A GeoMean (fluorescence signal geometric mean, proportional to anti-Human AF647 binding) in live cell population was plotted against antibody concentration using GraphPad Prism Version 9 (GraphPad Software, San Diego, CA). The Bmax, Curve Hill Slope (h) and Kd values were derived from the “Specific binding with Hill slope” nonlinear regression curve fit in GraphPad Prism Version 9.

[8] = molecular target: T1, human glypican-3 (GPC3); test: flow cytometry on JHH-7 cells; antibody in mouse plasma, day 0
Description: as §3

[9] = molecular target: T1, human glypican-3 (GPC3); test: flow cytometry on JHH-5 cells; antibody after 14 days in mouse plasma at 37 C
Description: as §3

[10] = molecular target: T1, human glypican-3 (GPC3); test: flow cytometry on JHH-7 cells; antibody after 14 days in mouse plasma at 37 C
Description: as §3

[11] = molecular target: human GPC3 on cells (human, UniProt P51654 25-554); test: cell-based or functional assay
[12] = molecular target: T3, recombinant cynomolgus GPC3 (glypican-3) (cynomolgus monkey, UniProt A0A2K5VK50 24-558); test: SPR; Kd on human GPC3 divided by Kd on cynomolgus GPC3
T3 construct: also called cynoGPC3
Description: (§4) CM5 Series S sensor chip, Biacore™ amine coupling kit (NHS, EDC and 1 M ethanolamine), and 10 mM sodium acetate buffers were purchased from Cytiva Life Sciences (Mississauga, ON, Canada). PBS running buffer with 0.05% Tween20 (PBST) was purchased from Teknova Inc. (Hollister, CA). Antigens: recombinant human and cynomolgus GPC3 was purchased from ACROBiosystems (Newark, DE) and SEC purified on a Superdex 200 10/300 GL column (Cytiva) in PBST running buffer at 0.8 mL/min.
(§5) Screening of the antibodies for binding to GPC3 antigen was conducted via anti-Fc capture of antibodies, followed by the injection of five concentrations of GPC3. The anti-Fc surface was prepared on a CM5 Series S sensor chip by standard amine coupling methods as described by the manufacturer (Cytiva Life Sciences, Mississauga, ON, Canada). […] Approximately 150-400 RUs of each antibody (5-20 μg/mL) were captured on the goat anti-human IgG surface by injecting at 10 μL/min for 60s. Using single-cycle kinetics, five concentrations of a two-fold dilution series of human or cynomolgus GPC3 starting at 40 nM, 20 nM, 10 nM, or 5 nM depending on the antibody, with a blank buffer control were injected at 20 μL/min for 180s of contact time, followed by 180 s dissociation phase, resulting in sensorgrams with a buffer blank reference. The anti-Fc surface was regenerated to prepare for the next injection cycle by one pulse of 10 mM glycine/HCl pH 1.5 for 120 s at 40 μL/min. Blank-subtracted sensorgrams were analyzed and fit to the 1:1 Langmuir binding model using Biacore™ T200 Evaluation Software v3.2.

[13] = molecular target: T4, recombinant human GPC3 (glypican-3) (human, UniProt P51654 25-559); test: SPR (Biacore T200), antibody captured by anti-Fc, GPC3 injected
T4 construct: also called huGPC3; hGPC3
Description: as §4, §5

[14] = molecular target: T4, recombinant human GPC3 (glypican-3); test: SPR (Biacore T200), antibody captured by anti-Fc, GPC3 injected, single-cycle kinetics, 1:1 fit; average
Description: as §4, §5

[15] = molecular target: T3, recombinant cynomolgus GPC3 (glypican-3); test: as above
Description: as §4, §5
Wherever JHH-5 Internalization (MFI) is given: test concentration or dose not given here.
Wherever JHH-5 Internalization (MFI), Day 0 in mouse plasma is given: test concentration or dose not given here.
Wherever JHH-5 Internalization (MFI), Day 14 in mouse plasma is given: test concentration or dose not given here.
Wherever JHH-7 Internalization (MFI) is given: test concentration or dose not given here.
Wherever JHH-7 Internalization (MFI), Day 0 in mouse plasma is given: test concentration or dose not given here.
Wherever JHH-7 Internalization (MFI), Day 14 in mouse plasma is given: test concentration or dose not given here.

B1: M3-H18L6 (WT) mAb, v38592 (antibody, human IgG1, kappa)
heavy: not shown
light: EIVLTQSPATLSLSPGERATISCRSSQSLRHSNGNTYLQWYQQKPGQAPRLLIYKVSNRFSGVPARFSGSGSGTDFTLTISSLEPEDFAVYFCYQSKHVPYTFGGGTKVEIKRTVAAPSVFIFPPSDEQLKSGTASVVCLLNNFYPREAKVQWKVDNALQSGNSQESVTEQDSKDSTYSLSSTLTLSKADYEKHKVYACEVTHQGLSSPVTKSFNRGEC
notes: Full-size IgG1/kappa; also called wild-type M3-H18L6; M3-H18L6 with HC C-terminal lysine
JHH-5 Internalization (MFI) [1]: 10500 MFI
JHH-7 Internalization (MFI) [1]: 7260 MFI
JHH-5 Internalization (MFI), Day 0 in mouse plasma [2]: 12200 MFI
JHH-5 Internalization (MFI), Day 14 in mouse plasma [2]: 7250 MFI
JHH-7 Internalization (MFI), Day 0 in mouse plasma [2]: 152 MFI
JHH-7 Internalization (MFI), Day 14 in mouse plasma [2]: 76 MFI
Bmax (MFI) [3]: 4670 MFI
Kd [3]: 0.12 nM
Bmax (MFI) [4]: 14100 MFI
Kd [4]: 0.42 nM
Bmax (MFI) [5]: 2530 MFI
Kd [5]: 0.14 nM
Bmax (MFI) [6]: 3150 MFI
Kd [6]: 0.19 nM
Bmax (MFI) [7]: 5130 MFI
Kd [7]: 0.14 nM
Bmax (MFI) [8]: 9770 MFI
Kd [8]: 0.39 nM

B2: H18L6_LC_G34D mAb, v40203 (antibody, human IgG1, kappa, V domains shown)
VH: QVQLVQSGAEVKKPGSSVKVSCKASGYTFTDYEMHWVKQAPGHGLEWIGAIDPETGDTAYNQKFKGKATLTADTSTSTAYMELSSLRSEDTAVYYCTRYFSFAYWGQGTLVTVSS
VL: EIVLTQSPATLSLSPGERATISCRSSQSLRHSNDNTYLQWYQQKPGQAPRLLIYKVSNRFSGVPARFSGSGSGTDFTLTISSLEPEDFAVYFCYQSKHVPYTFGGGTKVEIKR
JHH-5 Internalization (MFI) [1]: 6770 MFI
JHH-7 Internalization (MFI) [1]: 5010 MFI
JHH-5 Internalization (MFI), Day 0 in mouse plasma [2]: 8690 MFI
JHH-5 Internalization (MFI), Day 14 in mouse plasma [2]: 5690 MFI
JHH-7 Internalization (MFI), Day 0 in mouse plasma [2]: 104 MFI
JHH-7 Internalization (MFI), Day 14 in mouse plasma [2]: 63 MFI
Bmax (MFI) [3]: 4280 MFI
Kd [3]: 0.24 nM
Bmax (MFI) [4]: 12200 MFI
Kd [4]: 0.4 nM
Bmax (MFI) [5]: 2470 MFI
Kd [5]: 0.18 nM
Bmax (MFI) [6]: 2870 MFI
Kd [6]: 0.18 nM
Bmax (MFI) [7]: 4660 MFI
Kd [7]: 0.11 nM
Bmax (MFI) [8]: 9140 MFI
Kd [8]: 0.26 nM
Bmax (MFI) [9]: 4520 MFI
Kd [9]: 0.34 nM
Bmax (MFI) [10]: 8060 MFI
Kd [10]: 0.62 nM

B3: v36180-MC-GGFG-AM-Compound 139 (DAR8) (antibody, human IgG1, kappa, V domains shown)
VH: EVQLVQSGAEVKKPGSSVKVSCKASGYTFTDYEMHWVRQAPGQGLEWIGAIDPETGDTAYNQKFKGRATLTADKSTSTAYMELSSLRSEDTAVYYCTRYFSFAYWGQGTLVTVSS
VL: DVQMTQSPSSVSASVGDRVTITCRSSQSLRHSNGNTYLQWYQQKPGKAPKLLIYKVSNRFSGVPSRFSGSGSGTDFTLTISSLQPEDFATYFCYQSKHVPYTFGQGTKVEIKR
modifications: MC-GGFG-AM-Compound 139 drug-linker on reduced cysteines, sites not stated; MC-GGFG-AM-Compound 139 drug-linker on reduced cysteines, sites not stated; DAR 8 for the whole antibody
EC50 (nM), cytotoxicity, 2D monolayer, HepG2 (High) [11]: 0.09 nM
EC50 (nM), cytotoxicity, 2D monolayer, Huh-7 (Mid) [11]: 0.01 nM
EC50 (nM), cytotoxicity, 2D monolayer, JHH-5 (Mid) [11]: 0.14 nM
EC50 (nM), cytotoxicity, 2D monolayer, JHH-7 (High) [11]: 1 nM

B4: v36180-MC-GGFG-AM-Compound 141 (DAR8) (antibody, human IgG1, kappa, V domains shown)
VH: EVQLVQSGAEVKKPGSSVKVSCKASGYTFTDYEMHWVRQAPGQGLEWIGAIDPETGDTAYNQKFKGRATLTADKSTSTAYMELSSLRSEDTAVYYCTRYFSFAYWGQGTLVTVSS
VL: DVQMTQSPSSVSASVGDRVTITCRSSQSLRHSNGNTYLQWYQQKPGKAPKLLIYKVSNRFSGVPSRFSGSGSGTDFTLTISSLQPEDFATYFCYQSKHVPYTFGQGTKVEIKR
modifications: MC-GGFG-AM-Compound 141 drug-linker on reduced cysteines, sites not stated; MC-GGFG-AM-Compound 141 drug-linker on reduced cysteines, sites not stated; DAR 8 for the whole antibody
EC50 (nM), cytotoxicity, 2D monolayer, HepG2 (High) [11]: 0.03 nM
EC50 (nM), cytotoxicity, 2D monolayer, Huh-6 (Mid) [11]: 0.12 nM
EC50 (nM), cytotoxicity, 2D monolayer, Huh-7 (Mid) [11]: 0.01 nM
EC50 (nM), cytotoxicity, 2D monolayer, JHH-5 (Mid) [11]: 0.08 nM
EC50 (nM), cytotoxicity, 2D monolayer, JHH-7 (High) [11]: 0.02 nM

B5: v36180-MC-GGFG-Compound 141 (DAR8) (antibody, human IgG1, kappa, V domains shown)
VH: EVQLVQSGAEVKKPGSSVKVSCKASGYTFTDYEMHWVRQAPGQGLEWIGAIDPETGDTAYNQKFKGRATLTADKSTSTAYMELSSLRSEDTAVYYCTRYFSFAYWGQGTLVTVSS
VL: DVQMTQSPSSVSASVGDRVTITCRSSQSLRHSNGNTYLQWYQQKPGKAPKLLIYKVSNRFSGVPSRFSGSGSGTDFTLTISSLQPEDFATYFCYQSKHVPYTFGQGTKVEIKR
modifications: MC-GGFG-Compound 141 drug-linker on reduced cysteines, sites not stated; MC-GGFG-Compound 141 drug-linker on reduced cysteines, sites not stated; DAR 8 for the whole antibody
EC50 (nM), cytotoxicity, 2D monolayer, HepG2 (High) [11]: 0.03 nM
EC50 (nM), cytotoxicity, 2D monolayer, Huh-6 (Mid) [11]: 0.12 nM
EC50 (nM), cytotoxicity, 2D monolayer, Huh-7 (Mid) [11]: 0.03 nM
EC50 (nM), cytotoxicity, 2D monolayer, JHH-5 (Mid) [11]: 0.11 nM
EC50 (nM), cytotoxicity, 2D monolayer, JHH-7 (High) [11]: 0.03 nM

B6: v40217, H18L6_LC_N33K mAb (antibody, human IgG1, kappa, V domains shown)
VH: QVQLVQSGAEVKKPGSSVKVSCKASGYTFTDYEMHWVKQAPGHGLEWIGAIDPETGDTAYNQKFKGKATLTADTSTSTAYMELSSLRSEDTAVYYCTRYFSFAYWGQGTLVTVSS
VL: EIVLTQSPATLSLSPGERATISCRSSQSLRHSKGNTYLQWYQQKPGQAPRLLIYKVSNRFSGVPARFSGSGSGTDFTLTISSLEPEDFAVYFCYQSKHVPYTFGGGTKVEIKR
notes: no number given for this variant
Kd Fold difference (hu/cyno) [12]: 1.3 fold
Avg % binding huGPC3 (RU observed/theoretical) [13]: 15.5%
Kd [14]: 18.2 nM
Kd [15]: 14 nM

B7: v40216, H18L6_LC_N33R mAb (antibody, human IgG1, kappa, V domains shown)
VH: QVQLVQSGAEVKKPGSSVKVSCKASGYTFTDYEMHWVKQAPGHGLEWIGAIDPETGDTAYNQKFKGKATLTADTSTSTAYMELSSLRSEDTAVYYCTRYFSFAYWGQGTLVTVSS
VL: EIVLTQSPATLSLSPGERATISCRSSQSLRHSRGNTYLQWYQQKPGQAPRLLIYKVSNRFSGVPARFSGSGSGTDFTLTISSLEPEDFAVYFCYQSKHVPYTFGGGTKVEIKR
notes: as for B6
Kd Fold difference (hu/cyno) [12]: 1.82 fold
Avg % binding huGPC3 (RU observed/theoretical) [13]: 15.8%
Kd [14]: 20.1 nM
Kd [15]: 11.1 nM

B8: v40221, H18L6_LC_N33S mAb (antibody, human IgG1, kappa, V domains shown)
VH: QVQLVQSGAEVKKPGSSVKVSCKASGYTFTDYEMHWVKQAPGHGLEWIGAIDPETGDTAYNQKFKGKATLTADTSTSTAYMELSSLRSEDTAVYYCTRYFSFAYWGQGTLVTVSS
VL: EIVLTQSPATLSLSPGERATISCRSSQSLRHSSGNTYLQWYQQKPGQAPRLLIYKVSNRFSGVPARFSGSGSGTDFTLTISSLEPEDFAVYFCYQSKHVPYTFGGGTKVEIKR
notes: as for B6
Kd Fold difference (hu/cyno) [12]: 1.24 fold
Avg % binding huGPC3 (RU observed/theoretical) [13]: 18%
Kd [14]: 19.5 nM
Kd [15]: 15.8 nM

B9: v40219, H18L6_LC_N33A mAb (antibody, human IgG1, kappa, V domains shown)
VH: QVQLVQSGAEVKKPGSSVKVSCKASGYTFTDYEMHWVKQAPGHGLEWIGAIDPETGDTAYNQKFKGKATLTADTSTSTAYMELSSLRSEDTAVYYCTRYFSFAYWGQGTLVTVSS
VL: EIVLTQSPATLSLSPGERATISCRSSQSLRHSAGNTYLQWYQQKPGQAPRLLIYKVSNRFSGVPARFSGSGSGTDFTLTISSLEPEDFAVYFCYQSKHVPYTFGGGTKVEIKR
notes: as for B6
Kd Fold difference (hu/cyno) [12]: 1.77 fold
Avg % binding huGPC3 (RU observed/theoretical) [13]: 17.4%
Kd [14]: 18.3 nM
Kd [15]: 10.4 nM

B10: v40218, H18L6_LC_N33H mAb (antibody, human IgG1, kappa, V domains shown)
VH: QVQLVQSGAEVKKPGSSVKVSCKASGYTFTDYEMHWVKQAPGHGLEWIGAIDPETGDTAYNQKFKGKATLTADTSTSTAYMELSSLRSEDTAVYYCTRYFSFAYWGQGTLVTVSS
VL: EIVLTQSPATLSLSPGERATISCRSSQSLRHSHGNTYLQWYQQKPGQAPRLLIYKVSNRFSGVPARFSGSGSGTDFTLTISSLEPEDFAVYFCYQSKHVPYTFGGGTKVEIKR
notes: as for B6
Kd Fold difference (hu/cyno) [12]: 2.1 fold
Avg % binding huGPC3 (RU observed/theoretical) [13]: 15.6%
Kd [14]: 20.1 nM
Kd [15]: 9.57 nM

B11: v40220, H18L6_LC_N33Q mAb (antibody, human IgG1, kappa, V domains shown)
VH: QVQLVQSGAEVKKPGSSVKVSCKASGYTFTDYEMHWVKQAPGHGLEWIGAIDPETGDTAYNQKFKGKATLTADTSTSTAYMELSSLRSEDTAVYYCTRYFSFAYWGQGTLVTVSS
VL: EIVLTQSPATLSLSPGERATISCRSSQSLRHSQGNTYLQWYQQKPGQAPRLLIYKVSNRFSGVPARFSGSGSGTDFTLTISSLEPEDFAVYFCYQSKHVPYTFGGGTKVEIKR
notes: as for B6
Kd Fold difference (hu/cyno) [12]: 1.12 fold
Avg % binding huGPC3 (RU observed/theoretical) [13]: 16.1%
Kd [14]: 17.5 nM
Kd [15]: 15.7 nM

B12: v40215, H18L6_LC_N33V mAb (antibody, human IgG1, kappa, V domains shown)
VH: QVQLVQSGAEVKKPGSSVKVSCKASGYTFTDYEMHWVKQAPGHGLEWIGAIDPETGDTAYNQKFKGKATLTADTSTSTAYMELSSLRSEDTAVYYCTRYFSFAYWGQGTLVTVSS
VL: EIVLTQSPATLSLSPGERATISCRSSQSLRHSVGNTYLQWYQQKPGQAPRLLIYKVSNRFSGVPARFSGSGSGTDFTLTISSLEPEDFAVYFCYQSKHVPYTFGGGTKVEIKR
notes: as for B6
Kd Fold difference (hu/cyno) [12]: 1.27 fold
Avg % binding huGPC3 (RU observed/theoretical) [13]: 17.5%
Kd [14]: 22.5 nM
Kd [15]: 17.8 nM
